Biological target: Angiotensin-I Converting Enzyme (ACE) (Homo sapiens, UniProt P12821)
Assay: Determination of ACE inhibitory activity of hydrolysates in a microtiter plate (Hip-His-Leu substrate)
Format: biochemical
Details: no digestion simulation, in %
Description: ACE inhibitory activity can be measured in vitro using a spectrophotometry based assay. The assay is based on the liberation of hippuric acid from Hip-His-Leu substrate catalyzed by ACE.
Calculation of Ace Inhibition:
[formula] 2.4 Further (Optimized) Hydrolysis of Ovomucin with Alcalase Protocol for the DH Determination by TNBS Method Solutions: • 0.21 M Sodium phosphate buffer pH8.2 • 0.21 M NaH2PO4.H2O (25 ml solution) • 0.21 M Na2HPO4.2H2O (500 ml solution) • mix solutions to pH 8.2 • 0.05% TNBS • Dilute TNBS stock (5% solution) to 0.05% in MQ cover reagent tube with aluminium foil and store in dark place • 1% SDS solution • Leucine standard (stock 3 mM Leucine) • Dissolve Leucine in 1% SDS solution. Dilute the stock solution 20×, 10×, 4× en 2× with 1% SDS for analysis • Blank • Dilute non-hydrolysed sample in 1% SDS to a protein concentration of 0.5 mg/ml • Samples • Dilute hydrolysed protein in 1% SDS to a concentration of 0.5 mg/ml in duplo Analysis: • Pipet 15 μl sample (Leucine standard or sample) in microwell. Measure each dilution in twofold in plate (Costar, non-binding plate) • Add 45 μl 0.21 M sodium phosphate buffer pH 8.2 • Add 45 μl 0.05% TNBS. Cover plate with aluminium foil. Incubate plate for 60 minutes in a 50° C. stove. • After incubation add 90 μl 0.1 N HCl • Measure absorption at 340 nm (microplate reader) Calculation of degree of hydrolysis (DH): • Make calibration line of Leucine standard. This calibration line is used to convert absorption values of samples to NH2-equivalents.

Angiotensin-I Converting Enzyme (ACE), sequence (P12821 30-1306, species assumed): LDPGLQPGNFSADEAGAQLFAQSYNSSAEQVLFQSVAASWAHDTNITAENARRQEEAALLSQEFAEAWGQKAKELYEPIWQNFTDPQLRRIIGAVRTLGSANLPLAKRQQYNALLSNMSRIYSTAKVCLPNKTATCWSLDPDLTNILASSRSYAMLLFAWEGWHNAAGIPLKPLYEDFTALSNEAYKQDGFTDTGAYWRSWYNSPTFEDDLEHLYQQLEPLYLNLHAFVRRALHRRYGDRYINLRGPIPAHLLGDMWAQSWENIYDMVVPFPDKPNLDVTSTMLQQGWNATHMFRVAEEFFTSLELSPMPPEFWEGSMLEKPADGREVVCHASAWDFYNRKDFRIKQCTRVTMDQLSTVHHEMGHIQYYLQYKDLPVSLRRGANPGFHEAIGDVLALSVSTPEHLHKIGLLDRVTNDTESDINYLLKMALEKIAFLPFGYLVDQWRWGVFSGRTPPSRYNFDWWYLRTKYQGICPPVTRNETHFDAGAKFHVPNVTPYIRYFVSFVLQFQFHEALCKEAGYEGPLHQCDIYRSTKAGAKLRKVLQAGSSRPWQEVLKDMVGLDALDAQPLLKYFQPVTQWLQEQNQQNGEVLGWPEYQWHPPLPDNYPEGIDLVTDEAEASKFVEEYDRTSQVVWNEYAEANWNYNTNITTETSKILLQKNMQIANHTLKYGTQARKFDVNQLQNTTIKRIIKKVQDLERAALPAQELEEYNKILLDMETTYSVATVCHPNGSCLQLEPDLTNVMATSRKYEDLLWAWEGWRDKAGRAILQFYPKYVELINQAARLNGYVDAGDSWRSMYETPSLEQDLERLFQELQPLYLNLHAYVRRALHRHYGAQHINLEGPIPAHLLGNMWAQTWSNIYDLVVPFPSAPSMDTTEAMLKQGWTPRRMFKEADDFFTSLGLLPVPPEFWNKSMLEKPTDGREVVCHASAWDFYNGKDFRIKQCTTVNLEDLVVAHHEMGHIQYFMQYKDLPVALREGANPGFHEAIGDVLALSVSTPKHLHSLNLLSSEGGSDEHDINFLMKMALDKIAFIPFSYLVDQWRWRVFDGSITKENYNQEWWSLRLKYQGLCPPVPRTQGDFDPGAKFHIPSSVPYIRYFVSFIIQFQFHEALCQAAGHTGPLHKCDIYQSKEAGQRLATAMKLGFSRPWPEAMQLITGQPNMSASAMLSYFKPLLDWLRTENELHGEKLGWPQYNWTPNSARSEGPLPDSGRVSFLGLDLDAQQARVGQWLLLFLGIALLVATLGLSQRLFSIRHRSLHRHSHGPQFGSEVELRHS

B1: OT-UM: ovotransferrin, not pre-hydrolysed, nor in vitro digested (protein)
chain: APPKSVIRWCTISSPEEKKCNNLRDLTQQERISLTCVQKATYLDCIKAIANNEADAISLDGGQAFEAGLAPYKLKPIAAEVYEHTEGSTTSYYAVAVVKKGTEFTVNDLQGKTSCHTGLGRSAGWNIPIGTLLHRGAIEWEGIESGSVEQAVAKFFSASCVPGATIEQKLCRQCKGDPKTKCARNAPYSGYSGAFHCLKDGKGDVAFVKHTTVNENAPDQKDEYELLCLDGSRQPVDNYKTCNWARVAAHAVVARDDNKVEDIWSFLSKAQSDFGVDTKSDFHLFGPPGKKDPVLKDLLFKDSAIMLKRVPSLMDSQLYLGFEYYSAIQSMRKDQLTPSPRENRIQWCAVGKDEKSKCDRWSVVSNGDVECTVVDETKDCIIKIMKGEADAVALDGGLVYTAGVCGLVPVMAERYDDESQCSKTDERPASYFAVAVARKDSNVNWNNLKGKKSCHTAVGRTAGWVIPMGLIHNRTGTCNFDEYFSEGCAPGSPPNSRLCQLCQGSGGIPPEKCVASSHEKYFGYTGALRCLVEKGDVAFIQHSTVEENTGGKNKADWAKNLQMDDFELLCTDGRRANVMDYRECNLAEVPTHAVVVRPEKANKIRDLLERQEKRFGVNGSEKSKFMMFESQNKDLLFKDLTKCLFKVREGTTYKEFLGDKFYTVISSLKTCNPSDILQMCSFLEGK
An ACE inhibition (conc. 0.019 mg/ml) of 0.7, an ACE inhibition (conc. 0.056 mg/ml) of −4.1 and an ACE inhibition (conc. 0.167 mg/ml) of 0.7 were found for B1 in this work. It also gave an ACE inhibition (conc. 0.500 mg/ml) of −0.3.

Source: US8753698B2, “Anti-hypertensive functional food products” (Globus Egg Sciences B.V., priority 2004, dated 2014)
